Laboratory results reported in patent US20230416365A1 (Hoffmann-La Roche, published 2023).
Changes are numbered by the printed parent chain.

T1: N(A2B2)A-avi-His (biotinylated at the avi tag)
T1 construct: also called biotinylated N(A2B2)A-avi-His
T1 chain: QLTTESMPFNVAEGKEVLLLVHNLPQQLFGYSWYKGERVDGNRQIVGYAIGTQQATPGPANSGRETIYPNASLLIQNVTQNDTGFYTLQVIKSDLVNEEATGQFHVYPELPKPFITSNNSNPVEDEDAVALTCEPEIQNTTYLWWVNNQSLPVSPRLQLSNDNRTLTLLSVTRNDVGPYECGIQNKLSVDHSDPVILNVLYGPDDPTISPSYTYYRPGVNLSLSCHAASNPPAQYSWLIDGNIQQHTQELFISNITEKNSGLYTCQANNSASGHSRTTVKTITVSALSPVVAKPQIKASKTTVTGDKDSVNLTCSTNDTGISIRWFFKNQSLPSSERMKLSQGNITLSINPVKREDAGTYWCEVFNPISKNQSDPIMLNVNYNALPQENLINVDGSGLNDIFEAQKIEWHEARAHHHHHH

T2: NA(B2)A-avi-His (biotinylated at the avi tag)
T2 chain: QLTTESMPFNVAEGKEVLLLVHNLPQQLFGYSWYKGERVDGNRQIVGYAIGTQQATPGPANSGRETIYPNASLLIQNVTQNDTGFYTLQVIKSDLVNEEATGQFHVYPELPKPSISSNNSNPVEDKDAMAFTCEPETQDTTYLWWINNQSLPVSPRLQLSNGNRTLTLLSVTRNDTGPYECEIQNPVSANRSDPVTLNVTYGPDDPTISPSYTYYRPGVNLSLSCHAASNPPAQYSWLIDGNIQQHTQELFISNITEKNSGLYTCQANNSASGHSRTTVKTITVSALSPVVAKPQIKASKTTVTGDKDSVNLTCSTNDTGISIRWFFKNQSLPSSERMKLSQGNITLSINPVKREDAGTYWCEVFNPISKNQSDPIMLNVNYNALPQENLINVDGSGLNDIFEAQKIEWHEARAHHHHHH

B1: A5H1EL1D Fab (phage display format, parental clone) (Fab, V domains shown)
VH: EVQLLESGGGLVQPGGSLRLSCAASGFTFTDYYMNWVRQAPGKGLEWLGFIGNKANAYTTEYSASVKGRFTISRDKSKNTLYLQMNSLRAEDTATYYCTRDRGLRFYFDYWGQGTTVTVSS
VL: EIVLTQSPATLSLSPGERATLSCRASSSVTYIHWYQQKPGQAPRSWIYATSNLASGIPARFSGSGSGTDFTLTISSLEPEDFAVYYCQHWSSKPPTFGQGTKLEIK
notes: Fab from E. coli (bacterial supernatant or IMAC-purified), Flag tag
B2: P002.139 Fab (Fab, V domains shown)
VH: B1 VH with T28Y, Y33A, F50V, G52S
VL: B1 VL with R24H
notes: Fab from E. coli
B3: P001.177 Fab (Fab, V domains shown)
VH: B1 VH with T28Y, G52S
VL: B1 VL
notes: Fab from E. coli
B4: FAP (4B9) - CD28 (CD28(SA)_Variant 12) 1+1 (bispecific antibody, human IgG1, kappa, L234A L235A)
heavy 1: EIVLTQSPGTLSLSPGERATLSCRASQSVTSSYLAWYQQKPGQAPRLLINVGSRRATGIPDRFSGSGSGTDFTLTISRLEPEDFAVYYCQQGIMLPPTFGQGTKVEIKSSASTKGPSVFPLAPSSKSTSGGTAALGCLVKDYFPEPVTVSWNSGALTSGVHTFPAVLQSSGLYSLSSVVTVPSSSLGTQTYICNVNHKPSNTKVDKKVEPKSCDKTHTCPPCPAPEAAGGPSVFLFPPKPKDTLMISRTPEVTCVVVDVSHEDPEVKFNWYVDGVEVHNAKTKPREEQYNSTYRVVSVLTVLHQDWLNGKEYKCKVSNKALGAPIEKTISKAKGQPREPQVCTLPPSRDELTKNQVSLSCAVKGFYPSDIAVEWESNGQPENNYKTTPPVLDSDGSFFLVSKLTVDKSRWQQGNVFSCSVMHEALHNHYTQKSLSLSP
light 1: EVQLLESGGGLVQPGGSLRLSCAASGFTFSSYAMSWVRQAPGKGLEWVSAIIGSGASTYYADSVKGRFTISRDNSKNTLYLQMNSLRAEDTAVYYCAKGWFGGFNYWGQGTLVTVSSASVAAPSVFIFPPSDEQLKSGTASVVCLLNNFYPREAKVQWKVDNALQSGNSQESVTEQDSKDSTYSLSSTLTLSKADYEKHKVYACEVTHQGLSSPVTKSFNRGEC
heavy 2: not shown
light 2: DIQMTQSPSSLSASVGDRVTITCRASQNIYVWLNWYQQKPGKAPKLLIYKASNLYSGVPSRFSGSRSGTDFTLTISSLQPEDFATYYCQQGQTYPYTFGQGTKLEIKRTVAAPSVFIFPPSDRKLKSGTASVVCLLNNFYPREAKVQWKVDNALQSGNSQESVTEQDSKDSTYSLSSTLTLSKADYEKHKVYACEVTHQGLSSPVTKSFNRGEC
notes: huIgG1 PG-LALA CrossFab 1+1; also called P1AE3133
B5: FAP (4B9) - CD28 (CD28(SA)_Variant 16) 1+1 (bispecific antibody, human IgG1, kappa, L234A L235A)
heavy 1: B4 heavy 1
light 1: B4 light 1
heavy 2: not shown
light 2: not shown
notes: huIgG1 PG-LALA CrossFab 1+1; also called P1AE3135
B6: FAP (4B9) - CD28 (CD28(SA)_Variant 17) 1+1 (bispecific antibody, human IgG1, kappa, L234A L235A)
heavy 1: B4 heavy 1
light 1: B4 light 1
heavy 2: not shown
light 2: not shown
notes: huIgG1 PG-LALA CrossFab 1+1; also called P1AE3136
B7: FAP (4B9) - CD28 (CD28(SA)_Variant 15) 1+1 (bispecific antibody, human IgG1, kappa, L234A L235A)
heavy 1: B4 heavy 1
light 1: B4 light 1
heavy 2: not shown
light 2: not shown
notes: huIgG1 PG-LALA CrossFab 1+1; also called P1AE3134
B8: FAP (4B9) - CD28 (CD28(SA)_Variant 11) 1+1 (bispecific antibody, human IgG1, kappa, L234A L235A)
heavy 1: B4 heavy 1
light 1: B4 light 1
heavy 2: not shown
light 2: not shown
notes: huIgG1 PG-LALA CrossFab 1+1; also called P1AE3132
B9: FAP (4B9)-CD28 (CD28(SA)_Variant 8) 1+1 (bispecific antibody, human IgG1, kappa, L234A L235A)
heavy 1: B4 heavy 1
light 1: B4 light 1
heavy 2: not shown
light 2: not shown
notes: huIgG1 PG-LALA CrossFab 1+1; also called P1AE3131
B10: CD28(SA)_variant_12 (antibody, human IgG1, kappa, L234A L235A)
heavy: not shown
light: B4 light 2
chain: DKTHTCPPCPAPEAAGGPSVFLFPPKPKDTLMISRTPEVTCVVVDVSHEDPEVKFNWYVDGVEVHNAKTKPREEQYNSTYRVVSVLTVLHQDWLNGKEYKCKVSNKALGAPIEKTISKAKGQPREPQVCTLPPSRDELTKNQVSLSCAVKGFYPSDIAVEWESNGQPENNYKTTPPVLDSDGSFFLVSKLTVDKSRWQQGNVFSCSVMHEALHNRFTQKSLSLSP
notes: monovalent one-armed huIgG1 PG-LALA; from supernatant; also called P1AE3068
B11: CD28(SA)_variant_17 (antibody, human IgG1, kappa, L234A L235A)
heavy: not shown
light: not shown
chain: B10 chain
notes: monovalent one-armed huIgG1 PG-LALA; from supernatant; also called P1AE3073
B12: CD28(SA)_variant_15 (antibody, human IgG1, kappa, L234A L235A)
heavy: not shown
light: not shown
chain: B10 chain
notes: monovalent one-armed huIgG1 PG-LALA; from supernatant; also called P1AE3071
B13: CD28(SA)_variant_16 (antibody, human IgG1, kappa, L234A L235A)
heavy: not shown
light: not shown
chain: B10 chain
notes: monovalent one-armed huIgG1 PG-LALA; from supernatant; also called P1AE3072
B14: CD28(SA)_variant_19 (antibody, human IgG1, kappa, L234A L235A)
heavy: not shown
light: not shown
chain: B10 chain
notes: monovalent one-armed huIgG1 PG-LALA; from supernatant; also called P1AE3075
B15: CD28(SA)_variant_13 (antibody, human IgG1, kappa, L234A L235A)
heavy: not shown
light: not shown
chain: B10 chain
notes: monovalent one-armed huIgG1 PG-LALA; from supernatant; also called P1AE3069
B16: CD28(SA)_variant_26 (antibody, human IgG1, kappa, L234A L235A)
heavy: not shown
light: not shown
chain: B10 chain
notes: monovalent one-armed huIgG1 PG-LALA; from supernatant; also called P1AE3082
B17: CD28(SA)_variant_29 (antibody, human IgG1, kappa, L234A L235A)
heavy: not shown
light: not shown
chain: B10 chain
notes: monovalent one-armed huIgG1 PG-LALA; from supernatant; also called P1AE3085
B18: CD28(SA)_variant_31 (antibody, human IgG1, kappa, L234A L235A)
heavy: not shown
light: not shown
chain: B10 chain
notes: monovalent one-armed huIgG1 PG-LALA; from supernatant; also called P1AE3087
B19: CD28(SA)_variant_25 (antibody, human IgG1, kappa, L234A L235A)
heavy: not shown
light: not shown
chain: B10 chain
notes: monovalent one-armed huIgG1 PG-LALA; from supernatant; also called P1AE3081
B20: CD28(SA)_variant_27 (antibody, human IgG1, kappa, L234A L235A)
heavy: not shown
light: not shown
chain: B10 chain
notes: monovalent one-armed huIgG1 PG-LALA; from supernatant; also called P1AE3083
B21: CD28(SA)_variant_30 (antibody, human IgG1, kappa, L234A L235A)
heavy: not shown
light: B4 light 2
chain: B10 chain
notes: monovalent one-armed huIgG1 PG-LALA; from supernatant; also called P1AE3086

Molecular target: T1, N(A2B2)A-avi-His
Assay: SPR off-rate, ProteOn, antigen on NLC chip, Fab in bacterial supernatant

Row | Binder | koff
1 | B1 | 0.00031 s⁻¹
2 | B2 | 6.47e-05 s⁻¹
3 | B3 | 9.81e-05 s⁻¹

Molecular target: human FAP on 3T3-huFAP cells (clone 19) (human, UniProt Q12884 1-760)
Assay: flow cytometry on 3T3-huFAP cells, FAP-CD28 1+1 constructs, MFI (PE)

Row | Binder | binding result
4 | B4 | binds
5 | B5 | binds
6 | B6 | binds
7 | B7 | binds
8 | B8 | binds
9 | B9 | binds

Molecular target: T1, N(A2B2)A-avi-His
Assay: SPR, ProteOn, antigen on NLC chip, purified Fab as analyte

Row | Binder | Kd | koff | kon
10 | B1 | 2.3 nM | 0.000248 s⁻¹ | 108000 M⁻¹ s⁻¹
11 | B2 | 0.63 nM | 6.53e-05 s⁻¹ | 105000 M⁻¹ s⁻¹
12 | B3 | 0.29 nM | 7.85e-05 s⁻¹ | 267000 M⁻¹ s⁻¹

Molecular target: T3, biotinylated huCD28-Fc (dimeric CD28-Fc construct with a monovalent biotinylated avi-tag) (human, UniProt P10747 19-152, biotinylated at the C-terminal avi tag)
T3 construct: not shown: hum IgG1 Fc fragment with hole and PG-LALA mutations; hum IgG1 Fc fragment with knob and PG-LALA mutations
Assay: SPR, ProteOn XPR36, huCD28-Fc on NLC chip, bispecific as analyte

Row | Binder | Kd | koff | kon
13 | B4 | 1 nM | 0.000267 s⁻¹ | 261000 M⁻¹ s⁻¹
14 | B5 | 5.3 nM | 0.000994 s⁻¹ | 187000 M⁻¹ s⁻¹
15 | B6 | 3.7 nM | 0.00125 s⁻¹ | 338000 M⁻¹ s⁻¹
16 | B7 | 7.1 nM | 0.00184 s⁻¹ | 259000 M⁻¹ s⁻¹
17 | B8 | 12.5 nM | 0.00287 s⁻¹ | 230000 M⁻¹ s⁻¹
18 | B9 | 23.8 nM | 0.00521 s⁻¹ | 219000 M⁻¹ s⁻¹

Molecular target: T2, NA(B2)A-avi-His
Assay: SPR, ProteOn, 2000 RU NA(B2)A-avi-His on NLC chip, Fab in bacterial supernatant

Row | Binder | binding result
19 | B2 | no binding
20 | B3 | no binding

Molecular target: T4, human CD28 on CHO cells (parental cell line CHO-k1 ATCC #CCL-61, modified to stably overexpress human CD28) (human, UniProt P10747 19-220)
T4 construct: also called hu CD28; CHO-hCD28
Assay: binding to CHO cells expressing human CD28 (by the table's title)

Row | Binder | Kd
21 | B4 | 1 nM
22 | B5 | 5.3 nM
23 | B6 | 3.7 nM
24 | B7 | 7.1 nM
25 | B8 | 12.5 nM
26 | B9 | 23.8 nM

Molecular target: T4, human CD28 on CHO cells (parental cell …)
Assay: flow cytometry on CHO cells stably expressing human CD28, monovalent one-armed IgG from supernatant, MFI (PE)

Row | Binder | binding result
27 | B10 | binds
28 | B11 | binds
29 | B12 | binds
30 | B13 | binds
31 | B14 | binds
32 | B15 | binds

Molecular target: T4, human CD28 on CHO cells (parental cell …)
Assay: as above
Remark: another data set of the same source

Row | Binder | binding result
33 | B16 | binds
34 | B17 | binds
35 | B18 | binds
36 | B19 | binds
37 | B20 | binds
38 | B21 | binds
